Measurements as given in the RNAGym collection of RNA variant scans (doi:10.1073/pnas.2313332121).
This sample holds only a part of the variants without activity.

B1: TPR 5TU (parent)
chain: GGAUCUUCUCGAUCUAACAAAAAAGACAAAUCUGCCACAAAGCUUGAGAGCAUCUUCGGAUGCAGAGGCGGCAGCCUUCGGUGGCGCGAUAGCGCCAACGUUCUCAACUAUGACACGCAAAACGCGUGCUCCGUUGAAUGGAGUUUAUCAUG

Variants of: B1
Assay: polymerase ribozyme fitness, log enrichment relative to wild type (log ratio); higher = more active; in vitro selection for triplet polymerase activity
Outline: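 The heterodimeric triplet polymerase ribozyme's subunits were each mutagenized into PCR-built libraries and transcribed. Every library was selected once, in triplicate, by annealing with a biotinylated primer, the partner subunit and triplets, incubating frozen at −7 °C, gel-excising extended constructs, capturing on streptavidin beads and running RT-PCR. Input and output libraries were Illumina-sequenced, with genotypes kept only at ≥10 input reads and ≥1 read per output. Fitness, from inverse-variance-weighted replicate averages, is the base-2 logarithm of genotype enrichment over wild-type enrichment.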

Row | Variant | polymerase ribozyme fitness (log ratio)
1 | U15C U55G | 0.263
2 | U15G A21U A39G A47G G83A A142G | -3.92
3 | U15G A22C U148G | ≤ -4.2
4 | U15A A73C G94A | -3.39
5 | C14U C18G C32G A66C C93U A98U | ≤ -4.2
6 | U15C C54A G62A U78A G88C A113C A150U | ≤ -4.2
7 | U15C A21C U56C G83A | -0.11
8 | A16C A40C G83A A97G | -0.914
9 | C14U C35A A40G G84A | ≤ -4.2
10 | U15G A52C C96U U101G C129A | ≤ -4.2
11 | U15G G48A U53A A73G C85A | ≤ -4.2
12 | A16C C85U C95A C132U | -3.71
13 | A16C C18U C38U A39C A49U G67A U134G | ≤ -4.2
14 | C14U G74A G94A A122G | ≤ -4.2
15 | A16C A20G A24U A40G G48U G58U U77C C85U | ≤ -4.2
16 | U15G A98G A122C G124U | -1.76
17 | U15C G34C C57A G84U A98U | -2.33
18 | C14U G92C A150U | -4.2
19 | U15A A20C G59A A60U C93G C105U G133U | ≤ -4.2
20 | C14U G62C C75A C93G | ≤ -4.2
21 | C14U C54U C87A A89G C96U A121U A142C | ≤ -4.2

Row | Variant | polymerase ribozyme fitness (log ratio)
22 | U15G A37C A47C C95U | -1.64
23 | A16C G42U G58C G84U G100A U102G A137U U144C | ≤ -4.2
24 | U15G C27U G83A A121C | -2.52
25 | U15G C51A A52C C69U C85A | ≤ -4.2
26 | U15A A19C A52G G83A C103G | -3.83
27 | A16C G34U C93U C105U G112A | ≤ -4.2
28 | U15C G46A G59A C93A | -3.01
29 | A16C C32U A122G | -3.01
30 | U15G A16C A30C A47C C85A G133C G143C A150U | ≤ -4.2
31 | C14U A115G | -2.56
32 | U15A C85A | -1.53
33 | A16C A40C G59A C93U A106G | -2.02
34 | C14U A64G A91U C105G | ≤ -4.2
35 | U15G C85U | -0.0947
36 | C14U G59A C85U U134A | -4.12
37 | U15G G94C A115C C116G | -3.85
38 | U15G G25U | -3.22
39 | A16C A40U C93A A122G G141C | ≤ -4.2
40 | U15A G25C A29C G48C A64U C93U C95A C149A | ≤ -4.2
41 | A16C C32U C72G C75A G86C C87G C99U A107U A120U G124U | ≤ -4.2
42 | C14U C18A A20C C93A G136A A142C | -2.57

Row | Variant | polymerase ribozyme fitness (log ratio)
43 | C14U U55A U56A C76A | -2.4
44 | U15G A21U C85U A121U A138G | -4.04
45 | U15C A22C C36A A106G G143A | ≤ -4.2
46 | U15A A52C A66C G84U | ≤ -4.2
47 | C14U C96A | -1.59
48 | U15C G84C C125U U134G A150U | ≤ -4.2
49 | A16C A20U A28U C35A G50U G59C G84A C87G C96U C103A U148A | ≤ -4.2
50 | U15G G84A | -1.57
51 | U15C G84U | -0.83
52 | U15C A22C C85U U127C | -2
53 | A16C C57U C129U G143A | -1.91
54 | U15G C43U G59A G94U | ≤ -4.2
55 | U15A G94A | -0.258
56 | C14U A138C | -3.75
57 | A16C A21C C57A G88U C103G U130G | ≤ -4.2
58 | U15A C32A U56G G58U G84U C108U U139G | ≤ -4.2
59 | U15C C38U A49G C103G G141U | ≤ -4.2
60 | U15C A16G G59U A60G G92A C116U | -0.967
61 | U15C A20U A41U C57G A98G | -1.74
62 | U15G C96U | -1.19
63 | U15G C96A | -0.302

Row | Variant | polymerase ribozyme fitness (log ratio)
64 | C14U A52U C54A G83U C96G A98U | -3.86
65 | A16C C87U G128U | ≤ -4.2
66 | U15C A19G C69G C76A C79G G84U C95A A110U | ≤ -4.2
67 | C14U A73U U78G C87G A122U C123U | ≤ -4.2
68 | A16C G25U U61G G88U C93U G136A A147C U148C | ≤ -4.2
69 | A16C A52U C85G A122G G124C | ≤ -4.2
70 | U15C A122U | 0.45
71 | U15A A17C A23U U55A G84A G92A G94A U102G C116G | ≤ -4.2
72 | A16C C51A A89U G94A A98U | -3.95
73 | U15G A89C A119U | -0.888
74 | A16C A49U C85A G126U U139G | -3.47
75 | A16C A20C A41C C85G C116U | -3.81
76 | U15C A21C U61A G62C C95A U104A A138U | ≤ -4.2
77 | U15G G71U | -2.28
78 | A16C C76G C85U G133C C149A | ≤ -4.2
79 | C14U A122G | -1.71
80 | C14U C18A A19C A22G C93A A120C U139C G143U | ≤ -4.2
81 | C14U U56G G83U C95U C116U | -3.87
82 | C14U C27U U90C A91U C116G | -3.77
83 | U15A G59U C79G C93A U134A | ≤ -4.2
